The values below come from patent publication US11491212.

Factor X (FX), P00742, sequence (P00742 whole entry, looked up): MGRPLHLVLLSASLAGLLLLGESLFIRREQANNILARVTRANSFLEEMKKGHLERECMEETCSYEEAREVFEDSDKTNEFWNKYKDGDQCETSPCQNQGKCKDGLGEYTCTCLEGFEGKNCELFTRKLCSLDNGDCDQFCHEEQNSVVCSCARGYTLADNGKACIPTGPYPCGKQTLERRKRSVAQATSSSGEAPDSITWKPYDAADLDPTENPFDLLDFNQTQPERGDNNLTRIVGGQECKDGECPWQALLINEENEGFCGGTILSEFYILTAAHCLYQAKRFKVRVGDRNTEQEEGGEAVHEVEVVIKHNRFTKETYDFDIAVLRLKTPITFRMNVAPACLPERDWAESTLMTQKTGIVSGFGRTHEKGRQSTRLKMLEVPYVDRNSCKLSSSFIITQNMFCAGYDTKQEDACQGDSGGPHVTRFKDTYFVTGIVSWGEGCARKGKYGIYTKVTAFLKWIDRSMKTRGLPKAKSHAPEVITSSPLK
Factor X, P00742, sequence (P00742 whole entry, looked up): as above

B1: FIXa-Y155F/R318Y/R338E/T343R/R403E/E410N (protein)
chain 1: not shown
chain 2: not shown
For the protein B1, in the series with Factor X (FX), P00742, the KM was found to be 0.0272 µM and the kcat is 7.8 s⁻¹. Further, the kcat/KM with Factor X, P00742 came to 3e+08 M⁻¹ s⁻¹.

B2: FIXa-R318Y/R338E/R403E/E410N/T412V (protein)
chain 1: not shown
chain 2: not shown
Consider B2, for which, in the series with Factor X (FX), P00742, the Michaelis constant (KM) was 0.0483 µM and the kcat was 7 s⁻¹. Also, the kcat/KM with Factor X, P00742 stood at 1.6e+08 M⁻¹ s⁻¹.

B3: FIXa-R318Y/R338E/R403E/E410N/T412A (protein)
chain 1: not shown
chain 2: not shown
B3: in the series with Factor X (FX), P00742, the KM stood at 0.0344 µM and the kcat amounted to 7.8 s⁻¹. In addition, the kcat/KM with Factor X, P00742 was determined as 2.5e+08 M⁻¹ s⁻¹.

B4: FIXa-D104N/K106S/R318Y/R338E/T343R/R403E/E410N (protein)
chain 1: not shown
chain 2: not shown
As for B4, in the series with Factor X (FX), P00742, the KM was 0.0266 µM and the kcat worked out at 5.7 s⁻¹. Further, the kcat/KM with Factor X, P00742 was 2.2e+08 M⁻¹ s⁻¹.

B5: FIXa-R318Y/R338E/E410N/T412V (protein)
chain 1: not shown
chain 2: not shown
As to B5, in the series with Factor X (FX), P00742, the “% of WT kcat/KM (against Catalyst Biosciences WT FIXa), FX activation in the Xase complex” value (“% of WT kcat/KM” for short) was 536%; the KM stood at 0.0236 µM; the kcat is 5.2 s⁻¹; the kcat/KM for FX activation by FIXa in the Xase complex (FVIIIa, PC/PS vesicles, Ca2+), indirect fluorogenic Spectrafluor FXa assay amounted to 2.4e+08 M⁻¹ s⁻¹. The kcat/KM in the series with Factor X, P00742 turned out to be 2.6e+08 M⁻¹ s⁻¹.

B6: FIXa-R318Y/R338E/T343R/N346D/R403E/E410N (protein)
chain 1: not shown
chain 2: not shown
Consider B6, for which, in the series with Factor X (FX), P00742, the Michaelis-Menten constant (KM) stood at 0.067 µM and the kcat was determined as 5.4 s⁻¹. In the series with Factor X, P00742, the kcat/KM is 8.2e+07 M⁻¹ s⁻¹.

B7: FIXa-D104N/K106S/K228N/K247N/N249S/R318Y/R338E/R403E/E410N (protein)
chain 1: not shown
chain 2: not shown
For B7, the KM with Factor X (FX), P00742 was 0.0533 µM. For the same protein, in the series with Factor X, P00742, the kcat was found to be 6.1 s⁻¹ and the kcat/KM came out at 1.1e+08 M⁻¹ s⁻¹.

B8: FIXa-K247N/N249S/N260S/R318Y/R338E/R403E/E410N (protein)
chain 1: not shown
chain 2: not shown
Consider B8, for which, in the series with Factor X (FX), P00742, the “% of WT kcat/KM” value is on record as 217%; the KM was 0.0474 µM; the KM (nM) for activation of FX by FIXa in the Xase complex (FVIIIa, PC/PS vesicles, Ca2+), fluorogenic Spectrafluor FXa assay came to 62.2 nM; the kcat worked out at 3.4 s⁻¹. In addition, the kcat/KM for FX activation by FIXa in the Xase complex (FVIIIa, PC/PS vesicles, Ca2+), indirect fluorogenic Spectrafluor FXa assay with Factor X (FX), P00742 stood at 9.7e+07 M⁻¹ s⁻¹. Besides, the kcat/KM with Factor X, P00742 is 6.7e+07 M⁻¹ s⁻¹.

B9: FIXa-R318Y/R338E/T343R/R403E/E410N (protein)
chain 1: not shown
chain 2: not shown
Turning to B9, in the series with Factor X (FX), P00742, the “% of WT kcat/KM” value is given as 1217%; the KM was found to be 0.0247 µM; the KM (nM) for activation of FX by FIXa in the Xase complex (FVIIIa, PC/PS vesicles, Ca2+), fluorogenic Spectrafluor FXa assay came out at 22.3 nM; the kcat was 9.7 s⁻¹. For the same protein, the kcat/KM for FX activation by FIXa in the Xase complex (FVIIIa, PC/PS vesicles, Ca2+), indirect fluorogenic Spectrafluor FXa assay in the series with Factor X (FX), P00742 is 5.4e+08 M⁻¹ s⁻¹. Moreover, the kcat/KM in the series with Factor X, P00742 worked out at 4.2e+08 M⁻¹ s⁻¹.

B10: FIXa-R318Y/R338E/Y345A/R403E/E410N (protein)
chain 1: not shown
chain 2: not shown
For B10, in the series with Factor X (FX), P00742, the KM is 0.0188 µM and the kcat was determined as 1.4 s⁻¹. In addition, the catalytic efficiency (kcat/KM) in the series with Factor X, P00742 came out at 8.3e+07 M⁻¹ s⁻¹.

B11: FIXa-R318Y/R338E/N346Y/R403E/E410N (protein)
chain 1: not shown
chain 2: not shown
B11: in the series with Factor X (FX), P00742, the KM amounted to 0.0281 µM and the kcat stood at 3.4 s⁻¹. Also, the kcat/KM with Factor X, P00742 worked out at 1.2e+08 M⁻¹ s⁻¹.

B12: FIXa-R318Y/R338E/T343R/N346Y/R403E/E410N (protein)
chain 1: not shown
chain 2: not shown
With B12, in the series with Factor X (FX), P00742, the KM was 0.0158 µM and the kcat was 4.6 s⁻¹. Besides, in the series with Factor X, P00742, the kcat/KM was 3.1e+08 M⁻¹ s⁻¹.

By KM is commonly meant the substrate concentration at which the rate is half of its maximum. The kcat is the maximal rate divided by the concentration of active sites. For orientation: kcat/KM means the second-order rate constant that governs catalysis at low substrate concentration.
